System: T1, N[C@@H](CCC(=O)Nc1ccc([N+](=O)[O-])c(CO)c1)C(=O)O
T1 construct: As samples, there were used human serum; from tissue; host or cells: human serum
Assay: Km value, γ-GTP from human serum
Type: biochemical
Conditions: other: human serum γ-GTP
Description: In Table 3 are shown the results of measuring, by a conventional method, Km values of γ-L-glutamyl-3-hydroxymethyl-4-nitroanilide, which is a compound of this invention, for each of γ-GTPs derived from human serum, porcine kidney and bovine kidney.
In Table 3 are also shown, for reference, Km values of γ-L-glutamyl-3-carboxy-4-nitroanilide and γ-L-glutamyl-p-nitroanilide reported by Leslie M. Shaw (Clinical Chemistry, 23, 79 (1977)).

Chain of γ-GTP (human serum) (Homo sapiens) (chain, as listed by the source): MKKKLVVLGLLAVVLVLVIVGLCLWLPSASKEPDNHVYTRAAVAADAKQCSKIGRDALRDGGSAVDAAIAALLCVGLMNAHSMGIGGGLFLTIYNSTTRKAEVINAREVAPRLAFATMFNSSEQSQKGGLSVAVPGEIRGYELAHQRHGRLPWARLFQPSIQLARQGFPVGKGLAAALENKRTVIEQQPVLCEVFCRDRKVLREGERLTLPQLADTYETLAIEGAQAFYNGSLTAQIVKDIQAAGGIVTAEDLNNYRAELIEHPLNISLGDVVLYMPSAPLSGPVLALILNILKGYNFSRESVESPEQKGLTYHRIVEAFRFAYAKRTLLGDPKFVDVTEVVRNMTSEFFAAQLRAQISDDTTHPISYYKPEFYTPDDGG
Chain of γ-GTP (human serum) (Homo sapiens) (chain, as listed by the source): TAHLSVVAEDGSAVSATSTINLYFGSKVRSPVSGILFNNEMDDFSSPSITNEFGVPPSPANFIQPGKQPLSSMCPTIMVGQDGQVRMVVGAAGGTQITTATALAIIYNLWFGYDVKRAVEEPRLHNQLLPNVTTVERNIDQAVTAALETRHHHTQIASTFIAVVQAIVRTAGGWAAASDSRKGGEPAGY

Work on γ-GTP (human serum) (Homo sapiens) yielded a Km of 940 µM.
